In this assay the target is ZnF-UBP domain from USP5 (human) (UniProt P45974). Briefly: ITC. On the technique in general: ITC needs no label: the signal is the heat of the interaction.
ZnF-UBP domain from USP5 (human), sequence (P45974 163-291): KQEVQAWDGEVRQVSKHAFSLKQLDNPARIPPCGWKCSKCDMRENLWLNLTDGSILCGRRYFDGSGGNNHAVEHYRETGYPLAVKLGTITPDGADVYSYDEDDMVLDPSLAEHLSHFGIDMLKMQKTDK

As to “ubiquitin (from UniProt P0CG48 1-76) (natural protein)”, the stoichiometry N (as a rule, the number of molecules, sites or subunits per partner or assembly) worked out at 1.

The values are drawn from article PMC3988567.
